In paper doi:10.1101/2023.04.03.535455 (bioRxiv, 2023):
Values belong to the binder of their own block, whether it stands above or below them.

Legend:
[1] = target: T1, recombinant wild-type human PI31 (Proteasome Inhibitor of 31,000 daltons) (human, UniProt Q92530 1-271); assay: cryo-EM structure
T1 sequence: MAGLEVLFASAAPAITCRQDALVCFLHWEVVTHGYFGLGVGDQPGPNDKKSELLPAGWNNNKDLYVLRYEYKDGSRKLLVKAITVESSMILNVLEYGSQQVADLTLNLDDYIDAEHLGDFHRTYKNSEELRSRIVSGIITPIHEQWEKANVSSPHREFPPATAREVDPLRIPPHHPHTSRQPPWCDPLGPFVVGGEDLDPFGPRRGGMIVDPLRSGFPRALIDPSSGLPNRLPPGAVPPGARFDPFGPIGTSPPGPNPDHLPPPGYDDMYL

[2] = target: T2, His-PI31 wild-type (human) (human), Q92530; assay: mass photometry; conditions: remark: other sources report otherwise
T2 chain: T1 sequence

binding result [1]: binds
B1: β5 subunit of the bovine 20S proteasome (natural protein)
chain: TTTLAFKFRHGVIVAADSRATAGAYIASQTVKKVIEINPYLLGTMAGGAADCSFWERLLARQCRIYELRNKERISVAAASKLLANMVYQYKGMGLSMGTMICGWDKRGPGLYYVDSEGNRISGATFSVGSGSVYAYGVMDRGYSYDLEVEEAYDLARRAIYQATYRDAYSGGSVSLYHVREDGWIRVSSDNVADLHDKYSGSTH

binding result [1]: binds
B2: β2 subunit of the bovine 20S proteasome (natural protein)
chain: TTIAGVVYKDGIVLGADTRATEGMVVADKNCSKIHFISPNIYCCGAGTAADTDMTTQLISSNLELHSLSTGRLPRVVTANRMLKQMLFRYQGYIGAALVLGGVDVTGPHLYSIYPHGSTDKLPYVTMGSGSLAAMAVFEDKFRPDMEEEEAKKLVSEAIAAGIFNDLGSGSNIDLCVISKSKLDFLRPYSVPNKKGTRFGRYRCEKGTNAVLTEKVTTLEIEVLEETVQTMDTS

stoichiometry N [2]: 2
B3: His-PI31 wild-type (human), Q92530 1-271 (natural protein)
chain: T1 sequence
